In patent US20210403547A1 (Eli Lilly, published 2021):

How the values were obtained:
[1] = biological target: T1, Met-human Epiregulin (human, UniProt O14944 63-108); experiment: SPR (Biacore), antibody captured via anti-Fc on chip, ligand injected, KD = koff/kon, 25 C
T1 construct: Mature human Epiregulin with an added N-terminal methionine; also called human met-Epiregulin; EREG
Procedure: (§1) Biacore T2000 instrument (BIAcore® AB, Upsala, Sweden), reagents and Biacore T2000 Evaluation Software Ver 4.1 are used for the Surface Plasmon Resonance analysis. A CMS chip is prepared using manufacturer's EDC/NHS amine coupling method. The surfaces of all four flow cells are activated by injecting a 1:1 mixture of EDC/NHS for 7 minutes at 10 μL/min. […] Un-reacted sites are blocked with a 7 minute injection of ethanolamine at 10 μL/min. Injections of 3×20 seconds of glycine pH 1.5 at 30 μL/min are used to remove non-covalently associated protein. The running buffer is HBS-EP [10 mM HEPES, 150 mM Sodium Chloride, 3 mM EDTA, 0.005% Polysorbate 20].
(§2) Duplicate injections of each ligand concentration are injected at 30 μL/min for 300 seconds followed by a dissociation phase. […] Regeneration is performed by injecting 10 mM glycine pH 1.5 for 3×20 seconds at 30 μL/min over all flowcell.
(§3) Reference-subtracted data are collected as Fc2-Fc1. The measurements are obtained at 25° C. The on-rate (kₒₙ) and off-rate (koff) for each ligand are evaluated using a “1:1 (Langmuir) Binding” binding model. The affinity (KD) is calculated from the binding kinetics according to the relationship: KD=koff/kₒₙ.

[2] = biological target: T2, Rat TGF-alpha (rat, UniProt P01134 39-88); experiment: as above
T2 construct: also called rat TGFα
Procedure: as §1, §2, §3

[3] = biological target: T3, Cynomolgus Epiregulin (cynomolgus (Macaca fascicularis), UniProt O14944 63-108 (human entry)); experiment: as above
T3 construct: also called cynomolgus monkey epiregulin
Procedure: as §1, §2, §3

[4] = biological target: T4, Mouse Epiregulin (mouse (Mus musculus), UniProt Q61521 56-101); experiment: as above
Procedure: as §1, §2, §3

[5] = biological target: cynomolgus monkey epigen (cynomolgus monkey, UniProt G7P5K4 23-110); experiment: cell-based or functional assay
[6] = biological target: T1, Met-human Epiregulin; experiment: cell-based or functional assay
[7] = biological target: rat epiregulin (rat, UniProt Q9Z0L5 56-101, limits assumed); experiment: cell-based or functional assay
[8] = biological target: T5, Mouse TGF-alpha (mouse (Mus musculus), UniProt P48030 39-88); experiment: cell-based or functional assay
[9] = biological target: rat epigen (rat); experiment: cell-based or functional assay
[10] = biological target: T2, Rat TGF-alpha; experiment: cell-based or functional assay
[11] = biological target: T3, Cynomolgus Epiregulin; experiment: cell-based or functional assay
[12] = biological target: T4, Mouse Epiregulin; experiment: cell-based or functional assay
[13] = biological target: T1, Met-human Epiregulin; experiment: cell-based or functional assay; remark: listed apart in the source
[14] = biological target: Human EGF (human, UniProt P01133 971-1023); experiment: cell-based or functional assay
[15] = biological target: T6, Human Amphiregulin (human, UniProt P15514 101-187); experiment: cell-based or functional assay
T6 sequence: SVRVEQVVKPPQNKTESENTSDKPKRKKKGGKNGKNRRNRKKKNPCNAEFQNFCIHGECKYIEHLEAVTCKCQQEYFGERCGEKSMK

[16] = biological target: T2, Rat TGF-alpha; experiment: cell-based or functional assay; remark: listed apart in the source
[17] = biological target: T7, Human Betacellulin (human, UniProt P35070 32-111); experiment: cell-based or functional assay
T7 sequence: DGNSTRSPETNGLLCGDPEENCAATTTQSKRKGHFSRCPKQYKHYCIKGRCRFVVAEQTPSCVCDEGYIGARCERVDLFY

[18] = biological target: Human HBEGF (human, UniProt Q99075 63-148); experiment: cell-based or functional assay
[19] = biological target: T4, Mouse Epiregulin; experiment: cell-based or functional assay; remark: listed apart in the source
[20] = biological target: T5, Mouse TGF-alpha; experiment: SPR (Biacore), antibody captured on chip, ligand injected, 1:1 Langmuir fit, 25 C
Procedure: as §1
(§4) Duplicate injections of each ligand concentration are injected at 30 μL/min for 300 seconds followed by a dissociation phase. […] Regeneration is performed by injecting 10 mM glycine pH 1.5 for 30 seconds at 30 μL/min over all flowcell.
as §3

[21] = biological target: T4, Mouse Epiregulin; experiment: as above
Procedure: as §1, §4, §3

[22] = biological target: Human TGF-alpha (human, UniProt P01135 40-89); experiment: cell-based or functional assay
[23] = biological target: T5, Mouse TGF-alpha; experiment: SPR (Biacore), antibody captured on chip, ligand injected, KD = koff/kon, 25 C
Procedure: as §1, §4, §3

[24] = biological target: T4, Mouse Epiregulin; experiment: as above
Procedure: as §1, §4, §3

[25] = biological target: Mouse Epigen (mouse (Mus musculus), UniProt Q924X1 53-103); experiment: SPR, 25 C

B1: Antibody I (antibody, human IgG4 S228P, kappa, F234A L235A, V domains shown)
VH: QVQLVQSGAEVKKPGSSVKVSCKASGYTFTDAYINWVRQAPGQGLEWMGWIWPGPVITYYNPKFKGRVTITADKSTSTAYMELSSLRSEDTAVYYCARREVLSPFAYWGQGTTVTVSS
VL: DIVMTQSPDSLAVSLGERATINCRSSQSIVHSTGNTYLEWYQQKPGQPPKLLIYKVSNRFSGVPDRFSGSGSGTDFTLTISSLQAEDVAVYYCFHGTHVPYTFGGGTKVEIKR
notes: Humanized IgG4 monoclonal antibody
Kd [1]: 1.29 nM
Kd [2]: 0.0705 nM
Kd [3]: 1.05 nM
Kd [4]: 342 nM
IC50, neutralization of ligand-stimulated myofibroblast proliferation [5]: < 850 nM
IC50, neutralization of ligand-stimulated myofibroblast proliferation [6]: < 3.5 nM
IC50, neutralization of ligand-stimulated myofibroblast proliferation [7]: < 350 nM
IC50, neutralization of ligand-stimulated myofibroblast proliferation [8]: < 0.5 nM
IC50, neutralization of ligand-stimulated myofibroblast proliferation [9]: < 850 nM
IC50, neutralization of ligand-stimulated myofibroblast proliferation [10]: < 0.5 nM
IC50, neutralization of ligand-stimulated myofibroblast proliferation [11]: < 3.5 nM
IC50, neutralization of ligand-stimulated myofibroblast proliferation [12]: < 350 nM
IC50, neutralization of ligand-stimulated MFc7 cell proliferation (BrDU incorporation), ligand at 0.5 nM [13]: 3.15 nM
IC50, neutralization of ligand-stimulated MFc7 cell proliferation (BrDU incorporation), ligand at 0.5 nM [14]: > 2000 nM
IC50, neutralization of ligand-stimulated MFc7 cell proliferation (BrDU incorporation), ligand at 60 nM [15]: > 2000 nM
IC50, neutralization of ligand-stimulated MFc7 cell proliferation (BrDU incorporation), ligand at 0.5 nM [16]: 0.19 nM
IC50, neutralization of ligand-stimulated MFc7 cell proliferation (BrDU incorporation), ligand at 0.5 nM [17]: > 2000 nM
IC50, neutralization of ligand-stimulated MFc7 cell proliferation (BrDU incorporation), ligand at 0.5 nM [18]: > 2000 nM
IC50, neutralization of ligand-stimulated MFc7 cell proliferation (BrDU incorporation), ligand at 0.5 nM [19]: 334 nM

B2: Antibody III (antibody, mouse IgG1, kappa, V domains shown)
VH: QVQLQQSGPELVKPGASVKISCKASGYTFTDAYINWVKQRPGQGLEWIGWIWPGPVITYYNPKFKGKATLTVDKSSSTAYMLLSSLTSEDSAFYFCARREVLSPFAYWGQGTLVTVSA
VL: DVLMTQTPLSLPVSLGDQASISCRSSQSIVHSTGNTYLEWYLQKPGQSPKLLIYKVSNRFSGVPDRFSGSGSGTDFTLKISRVEAEDLGVYYCFHGTHVPYTFGGGTKLEIKR
notes: Mouse monoclonal antibody with the same CDRs as Antibody I; also called mouse antibody
koff [20]: 2.02e-05 s⁻¹
kon [20]: 541000 M⁻¹ s⁻¹
koff [21]: 0.0141 s⁻¹
kon [21]: 65500 M⁻¹ s⁻¹
IC50, neutralization of ligand-stimulated MFc7 cell proliferation (BrDU incorporation) [13]: 1.12 nM
IC50, neutralization of ligand-stimulated MFc7 cell proliferation (BrDU incorporation), ligand at 0.5 nM [16]: 0.13 nM
IC50, neutralization of ligand-stimulated MFc7 cell proliferation (BrDU incorporation) [22]: 0.52 nM
IC50, neutralization of ligand-stimulated MFc7 cell proliferation (BrDU incorporation), ligand at 0.5 nM [19]: 214 nM
Kd [23]: 0.038 nM
Kd [24]: 215 nM
Kd [25]: 365 nM
